Values quoted from earlier work in paper PMC6359508.

Target: actin microfilament (UniProt P68133)

In the case of “V-ATPase B subunit (from UniProt P21281)”, the Kd is listed as 150 nM.
